Molecular target: human insulin (disulfide-bonded heterodimer), P01308
Sequence (P01308 whole entry, looked up, one chain of several): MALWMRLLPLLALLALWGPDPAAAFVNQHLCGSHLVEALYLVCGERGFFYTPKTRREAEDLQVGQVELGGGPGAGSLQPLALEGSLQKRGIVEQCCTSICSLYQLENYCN

| Protein | disulfide reduction activity by RP-HPLC (main HIC fraction after drying and reconstitution in saline) | conversion of insulin heterodimer peak (RP-HPLC insulin reduction, 0.025 mM ORP-100, pH 6, 60 min) |
| --- | --- | --- |
| ORP100S (fully monocysteinic human thioredoxin-1, reduced form) (protein) VKQIESKTAFQEALDAAGDKLVVVDFSATWCGPSKMIKPFFHSLSEKYSNVIFLEVDVDDSQDVASESEVKSMPTFQFFKKGQKVGEFSGANKEKLEATINELV | the main fraction showed comparable disulfide reduction activity by DTNB and RP-HPLC to thioredoxin compositions purified without removing the red fraction |  |
| ORP-100 (C35S monocysteinic active site thioredoxin) (protein) VKQIESKTAFQEALDAAGDKLVVVDFSATWCGPSKMIKPFFHSLSEKYSNVIFLEVDVDDCQDVASECEVKCMPTFQFFKKGQKVGEFSGANKEKLEATINELV |  | even at acidic pH 6 ORP-100 is able to markedly reduce the insulin heterodimer peak, and at 1/500 the concentration of NAC |

— patent publication US20230071765
